Data taken from patent US20250122288A1 (ARGENX, published 2025).
One block for each binder: values may come before it.

Legend:
[1] = target: T1, neonatal Fc receptor (FcRn) (human, UniProt P55899 24-365; P61769 21-119); assay: FcRn occupancy assay, 'previous studies'
T1 construct: whole, on cells; also called human FcRn

[2] = target: T1, neonatal Fc receptor (FcRn); assay: in vitro FcRn occupancy assay
[3] = target: T1, neonatal Fc receptor (FcRn); assay: in vitro FcRn occupancy assay; reference implied to be two-armed TA-HEL-ABDEG

- IC50 [1]: > 100 nM
B1: mAb37-ABDEG (parental) (antibody)
chain 1: QVQLVQSGAEVMKPGSSVKVSCKASGYTFSWYHLEWVRQAPGHGLEWMGEIDPGTFTTNYNEKFKARVTFTADTSTSTAYMELSSLRSEDTAVYYCARFSHFSGSNHDYFDYWGQGTLVTVSSASTKGPSVFPLAPSSKSTSGGTAALGCLVKDYFPEPVTVSWNSGALTSGVHTFPAVLQSSGLYSLSSVVTVPSSSLGTQTYICNVNHKPSNTKVDKKVEPKSCDKTHTCPPCPAPELLGGPSVFLFPPKPKDTLYITREPEVTCVVVDVSHEDPEVKFNWYVDGVEVHNAKTKPREEQYNSTYRVVSVLTVLHQDWLNGKEYKCKVSNKALPAPIEKTISKAKGQPREPQVYTLPPSRDELTKNQVSLTCLVKGFYPSDIAVEWESNGQPENNYKTTPPVLDSDGSFFLYSKLTVDKSRWQQGNVFSCSVMHEALKFHYTQKSLSLSPG
chain 2: EIVMTQSPATLSVSPGERATLSCRASQSIGTNIHWYQQKPGQAPRLLIYYASESISGIPARFSGSGSGTEFTLTISSLQSEDFAVYYCQQSWSWPTTFGGGTKVEIKRTVAAPSVFIFPPSDEQLKSGTASVVCLLNNFYPREAKVQWKVDNALQSGNSQESVTEQDSKDSTYSLSSTLTLSKADYEKHKVYACEVTHQGLSSPVTKSFNRGEC

- IC50 [2]: 14 nM
B2: bivalent (TA) HEL-ABDEG (antibody, human IgG1, kappa)
heavy: QVQLQESGPGLVRPSQTLSLTCTVSGFSLTGYGVNWVRQPPGRGLEWIGMIWGDGNTDYNSALKSRVTMLKDTSKNQFSLRLSSVTAADTAVYYCARERDYRLDYWGQGSLVTVSSASTKGPSVFPLAPSSKSTSGGTAALGCLVKDYFPEPVTVSWNSGALTSGVHTFPAVLQSSGLYSLSSVVTVPSSSLGTQTYICNVNHKPSNTKVDKKVEPKSCDKTHTCPPCPAPELLGGPSVFLFPPKPKDTLYITREPEVTCVVVDVSHEDPEVKFNWYVDGVEVHNAKTKPREEQYNSTYRVVSVLTVLHQDWLNGKEYKCKVSNKALPAPIEKTISKAKGQPREPQVYTLPPSRDELTKNQVSLTCLVKGFYPSDIAVEWESNGQPENNYKTTPPVLDSDGSFFLYSKLTVDKSRWQQGNVFSCSVMHEALKFHYTQKSLSLSPGK
light: DIQMTQSPSSLSASVGDRVTITCRASGNIHNYLAWYQQKPGKAPKLLIYYTTTLADGVPSRFSGSGSGTDYTFTISSLQPEDIATYYCQHFWSTPRTFGQGTKVEIKRTVAAPSVFIFPPSDEQLKSGTASVVCLLNNFYPREAKVQWKVDNALQSGNSQESVTEQDSKDSTYSLSSTLTLSKADYEKHKVYACEVTHQGLSSPVTKSFNRGEC
notes: Two-armed anti-hen egg lysozyme antibody with an Fc-ABDEG region; Copies of 2 follow from 'bivalent (TA)'

- IC50 [2]: 7 nM
- fold improvement in FcRn occupancy [3]: 2 fold
B3: one-armed (OA) HEL-ABDEG (antibody, human IgG1, kappa)
heavy: QVQLQESGPGLVRPSQTLSLTCTVSGFSLTGYGVNWVRQPPGRGLEWIGMIWGDGNTDYNSALKSRVTMLKDTSKNQFSLRLSSVTAADTAVYYCARERDYRLDYWGQGSLVTVSSASTKGPSVFPLAPSSKSTSGGTAALGCLVKDYFPEPVTVSWNSGALTSGVHTFPAVLQSSGLYSLSSVVTVPSSSLGTQTYICNVNHKPSNTKVDKKVEPKSCDKTHTCPPCPAPELLGGPSVFLFPPKPKDTLYITREPEVTCVVVDVSHEDPEVKFNWYVDGVEVHNAKTKPREEQYNSTYRVVSVLTVLHQDWLNGKEYKCKVSNKALPAPIEKTISKAKGQPREPQVYTLPPSRDELTKNQVSLWCLVKGFYPSDIAVEWESNGQPENNYKTTPPVLDSDGSFFLYSKLTVDKSRWQQGNVFSCSVMHEALKFHYTQKSLSLSPG
chain: DKTHTCPPCPAPELLGGPSVFLFPPKPKDTLYITREPEVTCVVVDVSHEDPEVKFNWYVDGVEVHNAKTKPREEQYNSTYRVVSVLTVLHQDWLNGKEYKCKVSNKALPAPIEKTISKAKGQPREPQVYTLPPSRDELTKNQVSLSCAVKGFYPSDIAVEWESNGQPENNYKTTPPVLDSDGSFFLVSKLTVDKSRWQQGNVFSCSVMHEALKFHYTQKSLSLSPG
light: B2 light
notes: One anti-HEL Fab joined by a natural IgG1 hinge to the N-terminus of Fc-ABDEG; The Fc is a knob-into-hole heterodimer

- IC50 [2]: 6 nM
B4: efgartigimod (other)
chain: DKTHTCPPCPAPELLGGPSVFLFPPKPKDTLYITREPEVTCVVVDVSHEDPEVKFNWYVDGVEVHNAKTKPREEQYNSTYRVVSVLTVLHQDWLNGKEYKCKVSNKALPAPIEKTISKAKGQPREPQVYTLPPSRDELTKNQVSLTCLVKGFYPSDIAVEWESNGQPENNYKTTPPVLDSDGSFFLYSKLTVDKSRWQQGNVFSCSVMHEALKFHYTQKSLSLSPGK
